Values of other authors in US8217152B2, “Process for the purification of IL-18 binding protein” (Ares Trading S.A., priority 2005, dated 2012).

Key:
IL-18 = molecular target: T1, IL-18 (Homo sapiens, UniProt Q14116); details: Kim et al. 2000; read-out: dissociation constant (Kd) for IL-18
T1 sequence (Q14116 37-193): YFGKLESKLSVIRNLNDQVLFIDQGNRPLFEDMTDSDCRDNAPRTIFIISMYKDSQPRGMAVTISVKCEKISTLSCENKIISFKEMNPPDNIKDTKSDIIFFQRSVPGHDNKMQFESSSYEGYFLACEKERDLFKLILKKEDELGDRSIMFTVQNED

IL-18 induction of IFN-γ = details: in vitro
[1] = system: IL-18 activation of NF-κB; details: in vitro
induction of IFN-γ = details: mice injected with LPS

Kd (IL-18): 0.4 nM
B1: IL-18BP: naturally occurring soluble protein that binds IL-18 (protein, UniProt O95998 31-194, looked up)
Interleukin-18-binding protein: TPVSQTTTAATASVRSTKDPCPSQPPVFPAAKQCPALEVTWPEVEVPLNGTLSLSCVACSRFPNFSILYWLGNGSFIEHLPGRLWEGSTSRERGSTGTQLCKALVLEQLTPALHSTNFSCVLVDPEQVVQRHVVLAQLWAGLRATLPPTQEALPSSHSSPQQQG
effect on IL-18 induction of IFN-γ (IL-18 induction of IFN-γ): abolishes
effect on IL-18 activation of NF-κB [1]: abolishes
effect on induction of IFN-γ (induction of IFN-γ): inhibits
